Test results: publication PMC6647844

Target: tetra-methyl rhodamine-labeled Aβ42 (TMR-Aβ) (UniProt P05067)
Test: other fluorescence titration

Chain of tetra-methyl rhodamine-labeled Aβ42 (TMR-Aβ) (P05067 672-713): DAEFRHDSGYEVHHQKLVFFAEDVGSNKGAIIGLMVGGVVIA

Kd: 2550 nM
Substance: granulin-3, fully reduced (rGRN-3) (from UniProt P28799 206-261) (natural protein)
